Laboratory results taken from the RNAGym collection of RNA variant scans (doi:10.1073/pnas.2313332121).
Variants at the floor of the assay were thinned out.

B1: TPR 5TU (parent)
chain: GGAUCUUCUCGAUCUAACAAAAAAGACAAAUCUGCCACAAAGCUUGAGAGCAUCUUCGGAUGCAGAGGCGGCAGCCUUCGGUGGCGCGAUAGCGCCAACGUUCUCAACUAUGACACGCAAAACGCGUGCUCCGUUGAAUGGAGUUUAUCAUG

Variants of: B1
Experiment: polymerase ribozyme fitness, log enrichment relative to wild type (log ratio); higher = more active; in vitro selection for triplet polymerase activity
Procedure, shortened: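 PCR was used to build mutant libraries for each subunit of a heterodimeric triplet polymerase ribozyme, which were then transcribed. A single in vitro selection round, in triplicate, used a frozen incubation at −7 °C and recovered extended constructs by gel excision, streptavidin beads and RT-PCR. Fitness is the logarithm of genotype enrichment relative to wild-type enrichment, averaged over replicates with inverse-variance weights. The logarithm is base 2, and after Illumina sequencing only genotypes with ≥10 input reads and ≥1 read per output were kept.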

Variant	polymerase ribozyme fitness (log ratio)
A28U U56A G81A C95U	≤ -4.2
A28C G42C C76G C79G G86C U90G A97G U145C	≤ -4.2
A28C G58U A113G A119U	≤ -4.2
A28G U44G A91U C99U	≤ -4.2
A28G U55G G58C G88C G140U	≤ -4.2
A28U A37C C79U C87U	-3.89
A28G C54U C93A U127A	≤ -4.2
A28U A30C U53G A64U C118U	≤ -4.2
C27G A39U G74A C87G U102G	≤ -4.2
A28U C32U G42C G84A A89G G92A C131A U148A	≤ -4.2
A28U C35G C54A C79A G80C A89C G94A	≤ -4.2
C27U C38U A52U C85G G88U U102G	≤ -4.2
C27U A41G A47C U53A U78C C93A A110U	≤ -4.2
A28U G65U U82G U101G C103A G152U	≤ -4.2
C27U A52C A60U C76U G84U C96G U109C	≤ -4.2
A28U U55A C72U U90C A115G	≤ -4.2
C27U A122G	-2.4
A28C G59U A91G U135C	≤ -4.2
A28G C32U G86C A115G U144G	≤ -4.2
C27U A28G A60G A98U G100A U135G	≤ -4.2
C27U A138G	-3.72
A28G G94A	-3.42
A28G A91C G126A	≤ -4.2
A28C C87G G117C A137U	≤ -4.2

Variant	polymerase ribozyme fitness (log ratio)
A28U A49G C54A C93U U144C	≤ -4.2
A28U G50A C85G	≤ -4.2
C27U C76U	-1.42
C27U C76A	-2.31
A28U A73G	≤ -4.2
C27U A39G A40C C69A U77C G94U C95A C116U G140U	≤ -4.2
C27U C99G G133U G141A C149G	≤ -4.2
A28U A30C C32A A47C G58C C85U A107U	≤ -4.2
C27G C93U G141C	-3.68
C27G C51U	-3.97
A28U U55A	-4.13
A28U G50C G83C A110C	≤ -4.2
A28U G50A U55C U139G	≤ -4.2
C27U U78A C79G A91C C118G	≤ -4.2
A28C C36U A39U U55A A66U C79U A91U C93A	≤ -4.2
A28U C93U C118U A121G	≤ -4.2
C27U A37C A52C C87U G88C	≤ -4.2
C27U A91G A147C G152U	≤ -4.2
C27G C72A C96A A107U	≤ -4.2
A28C G65U G68A A91U	≤ -4.2
C27U A37C G59U U61A C63U A64C G92U	≤ -4.2
C27G G65A	≤ -4.2
A28U A30U A39U G50C C57G C75G U82A G83C G124U	≤ -4.2
A28C U56A C57A G68A C76A G88U G94A A138C	≤ -4.2

Variant	polymerase ribozyme fitness (log ratio)
A28C A60G C69U G74A U135G A138U G141U	≤ -4.2
C27G C87G G133C	≤ -4.2
C27G G48C G80A G81A A113G C118A C132U G136C A150G	≤ -4.2
A28U C54G C72U	≤ -4.2
A28C C54A C95A C105U U145A	≤ -4.2
A28G U56A G136C	≤ -4.2
C27G G71A A138C A142C	≤ -4.2
C27G U45A G48U A91C	≤ -4.2
C27G C32U C36U G88A C99U G141U G152C	-4.05
C27G C43U C75G U78G C129G G143A	≤ -4.2
C27U U55A G70C A91U A97U A106G	≤ -4.2
A28U A37C C87A G117A G140C	≤ -4.2
C27G A41C C54G C87G C114G C125A	≤ -4.2
A28C C85A	≤ -4.2
A28G U44A G83C A147G	≤ -4.2
A28G A107G U144C	≤ -4.2
A28G A30U C32A C85A C95U A115U	≤ -4.2
A28C A30G C93U C103U	-4.06
A28G G46A C85A A91G	≤ -4.2
C27G U53A U102A	≤ -4.2
A28C A30U G86A	≤ -4.2
C27U G50C G141A	-4.12
A28U A66C G83U A122G	-4.16
A28G G42U	≤ -4.2

Variant	polymerase ribozyme fitness (log ratio)
A28U A49U U139G	≤ -4.2
C27G A147C	-4.05
C27U C57A C95U	-2.1
C27G G80A C114A C116U A142C	≤ -4.2
C27G G94C G136U	≤ -4.2
A28U A39C A98G G143U U144G U146G	≤ -4.2
C27U A47C U56G C76U U78A G94A A97U C118U	≤ -4.2
C27U A97G C131A U151C	≤ -4.2
C27U C95U U102A	-2.66
A28C C93U	-4.16
C27U C32G C36U C87G	≤ -4.2
A28U G50C C76U C85U C103A C118U U144G	≤ -4.2
A28U C57U G84U G94A A98U C116A A147C	≤ -4.2
C27U A37U C99G	-3.64
A28U C76G G92U	≤ -4.2
C27U C75G U78A C85U U148G	≤ -4.2
C27U C95U	-2.39
C27G C93U U130G U151A	≤ -4.2
A28G G58U	≤ -4.2
A28G A37C U55A U90C A91G	≤ -4.2
C27U A29U U144C	≤ -4.2
C27U A47C	-1.01
A28G U56A	-3.7
A28G C93U C105G	≤ -4.2

Variant	polymerase ribozyme fitness (log ratio)
A28C C35U G124A G141U	≤ -4.2
C27G C54A C93A A115U	≤ -4.2
C27U A41C A52C C54G C95G U102A	≤ -4.2
A28G G80A G141A	≤ -4.2
C27U G84A	-1.66
A28G A40G G50A A52G G65U C96U	-3.77
A28G C93U U127C	≤ -4.2
A28U C96A	-3.93
A28U C96U	-3.66
A28G G140A	-4.13
C27G U55A	-3.74
A28U A40U G48A A119U U127C U146G	≤ -4.2
A28C C32U A52U U53G C93A G112C G143U	≤ -4.2
A28U A29U A37G A66U A73U U78G G84A	≤ -4.2
C27U A40U G58C G59U G92U	-2.23
C27U A66G G88A G136A	≤ -4.2
A28C G80C C87G	≤ -4.2
C27U G62A A97U A98C	-3.33
C27U	-1.13
A28C G46C C76G U82A A89C G124A	≤ -4.2
C27U G86A U145A G152A	≤ -4.2
C27U G70A C87A	≤ -4.2
A28G A49G G50A C87G	≤ -4.2
C27G C125A	-3.93

Variant	polymerase ribozyme fitness (log ratio)
A28U A52G C85U G88A C95G U109G	≤ -4.2
A28U G50A C132U	≤ -4.2
A28G A52C U55C C63A C87U A91U	≤ -4.2
A28G A29U C43G A47C G84U A110U	≤ -4.2
A28U C72U	≤ -4.2
A28C U78G	≤ -4.2
C27U G34A A66G A113C A121C	≤ -4.2
A28C A64U G84A C85G	≤ -4.2
C27G G50A	-3.72
C27G A40U G58A A73C C76U C95G	≤ -4.2
C27G C54U C76G U144G	≤ -4.2
C27U C75G C85A C105G U130G U146G	≤ -4.2
A28G C79G C85U A115C U151A	≤ -4.2
C27U A29C G58C C85A U145A	≤ -4.2
C27G G83A A89C	-3.98
A28U G48U	≤ -4.2
C27U C57A A66C G71A C96A U130A	≤ -4.2
C27U A28G U53G A73G C85U G86C A120U C132U	≤ -4.2
C27G C38A C54U G92U U134G	≤ -4.2
C27U A39C G50U C123A	≤ -4.2
C27U A37C C51U C57U C95U C125A	-4.06
A28U A49C C103G	≤ -4.2
A28C U78G C96G U148G	≤ -4.2
C27G G92C A142U	≤ -4.2

Variant	polymerase ribozyme fitness (log ratio)
A28U C54U C76A C114U	-3.97
A28G U53A	-3.62
A28U A47C	-3.9
C27G U33C G68U	≤ -4.2
A28U A29G C75G G81U C85G A106C C129A	≤ -4.2
A28U G84U	≤ -4.2
A28U A52C A97U A137U U139C	≤ -4.2
C27U U31A G48U C85U	-2.25
C27G C36U G50U A73U U82A C95U	≤ -4.2
C27U C35A G133U C149G	≤ -4.2
C27U G92U G100A A106C G124C A138G	≤ -4.2
C27U G86U C99G	≤ -4.2
A28U A66U A73G G86U C103G C116U G152U	≤ -4.2
A28U C32U A39U G58U C87U	≤ -4.2
C27U U139A	≤ -4.2
C27G C35G A49C G70C C79A C95G	≤ -4.2
C27G C87A	≤ -4.2
C27G C87U	-3.97
A28C A41C C95A G128A G140C G143A	≤ -4.2
A28U C99A	-4.15
A28C A30U A60C C75A C76U C93A C95G	≤ -4.2
C27U C85U	-2.83
C27U C85A	-2.04
